Results taken from paper PMC7305236.
No end group written: not given here.

B1: adrenorphin-derived peptide YGGFMRKV (peptide)
peptide: YGGFMRKV-NH2
B2: adrenorphin-derived peptide YGGFMRRL (peptide)
peptide: YGGFMRRL-NH2
B3: adrenorphin-derived peptide YGGFMRRI (peptide)
peptide: YGGFMRRI-NH2
B4: adrenorphin-derived peptide YGGFMRRA (peptide)
peptide: YGGFMRRA-NH2
B5: adrenorphin-derived peptide YGGFMRRF (peptide)
peptide: YGGFMRRF-NH2
B6: adrenorphin-derived peptide YGGFMRRK (peptide)
peptide: YGGFMRRK-NH2
B7: adrenorphin-derived peptide AGGFMRRV (peptide)
peptide: AGGFMRRV-NH2
B8: adrenorphin-derived peptide YGGFMRRQ (peptide)
peptide: YGGFMRRQ-NH2
B9: adrenorphin-derived peptide - GGFMRRV (peptide)
peptide: GGFMRRV-NH2
B10: adrenorphin-derived peptide … (peptide)
peptide: AYGGFMRRV-NH2
B11: adrenorphin-derived peptide … (peptide)
peptide: YGGFMRRVA-NH2
B12: adrenorphin-derived peptide … (peptide)
peptide: YGGFMRRVR-NH2
B13: adrenorphin-derived peptide (…)2 (peptide)
peptide: YGGFMRRVC-NH2
modifications: also: dimer of two chains
B14: second-generation peptide … (peptide)
peptide: FGGFMRRKR-NH2
B15: second-generation peptide … (peptide)
peptide: FGGFMRRVR-NH2
B16: second-generation peptide FGGWMRRK (peptide)
peptide: FGGWMRRK-NH2
B17: second-generation peptide … (peptide)
peptide: FGGWMRRVR-NH2
B18: second-generation peptide … (peptide)
peptide: FGGWMRRKR-NH2
B19: second-generation peptide FGGWMRRV (peptide)
peptide: FGGWMRRV-NH2
B20: second-generation peptide FGGFMRRF (peptide)
peptide: FGGFMRRF-NH2
B21: adrenorphin-derived peptide FGGFMRRV (peptide)
peptide: FGGFMRRV-NH2
B22: adrenorphin-derived peptide LGGFMRRV (peptide)
peptide: LGGFMRRV-NH2
B23: adrenorphin-derived peptide YAGFMRRV (peptide)
peptide: YAGFMRRV-NH2
B24: adrenorphin-derived peptide YSGFMRRV (peptide)
peptide: YSGFMRRV-NH2
B25: adrenorphin-derived peptide YRGFMRRV (peptide)
peptide: YRGFMRRV-NH2
B26: adrenorphin-derived peptide YGAFMRRV (peptide)
peptide: YGAFMRRV-NH2
B27: adrenorphin-derived peptide YGSFMRRV (peptide)
peptide: YGSFMRRV-NH2
B28: adrenorphin-derived peptide YGGYMRRV (peptide)
peptide: YGGYMRRV-NH2
B29: adrenorphin-derived peptide YGGWMRRV (peptide)
peptide: YGGWMRRV-NH2
B30: adrenorphin-derived peptide YGGLMRRV (peptide)
peptide: YGGLMRRV-NH2
B31: adrenorphin-derived peptide YGGAMRRV (peptide)
peptide: YGGAMRRV-NH2
B32: adrenorphin-derived peptide YGGFLRRV (peptide)
peptide: YGGFLRRV-NH2
B33: adrenorphin-derived peptide YGGFARRV (peptide)
peptide: YGGFARRV-NH2
B34: adrenorphin-derived peptide YGGFKRRV (peptide)
peptide: YGGFKRRV-NH2
B35: adrenorphin-derived peptide YGGFQRRV (peptide)
peptide: YGGFQRRV-NH2
B36: adrenorphin-derived peptide YGGFFRRV (peptide)
peptide: YGGFFRRV-NH2
B37: adrenorphin-derived peptide YGGFNRRV (peptide)
peptide: YGGFNRRV-NH2
B38: adrenorphin-derived peptide YGGFMARV (peptide)
peptide: YGGFMARV-NH2
B39: adrenorphin-derived peptide YGGFMKRV (peptide)
peptide: YGGFMKRV-NH2
B40: adrenorphin-derived peptide YGGFMRAV (peptide)
peptide: YGGFMRAV-NH2

Columns and labels:
[1] = molecular target: atypical chemokine receptor ACKR3 (formerly CXCR7) (human) (UniProt P25106)
[2] = molecular target: delta opioid receptor (DOR) (human) (UniProt P41143)
[3] = molecular target: kappa opioid receptor (KOR) (human) (UniProt P41145)
[4] = molecular target: mu opioid receptor (MOR) (human) (UniProt P35372)
[5] = molecular target: atypical chemokine receptor ACKR3 (formerly CXCR7) (human) (UniProt P25106); remark: listed apart in the source

Chain of atypical chemokine receptor ACKR3 (formerly CXCR7) (human) (P25106 whole entry): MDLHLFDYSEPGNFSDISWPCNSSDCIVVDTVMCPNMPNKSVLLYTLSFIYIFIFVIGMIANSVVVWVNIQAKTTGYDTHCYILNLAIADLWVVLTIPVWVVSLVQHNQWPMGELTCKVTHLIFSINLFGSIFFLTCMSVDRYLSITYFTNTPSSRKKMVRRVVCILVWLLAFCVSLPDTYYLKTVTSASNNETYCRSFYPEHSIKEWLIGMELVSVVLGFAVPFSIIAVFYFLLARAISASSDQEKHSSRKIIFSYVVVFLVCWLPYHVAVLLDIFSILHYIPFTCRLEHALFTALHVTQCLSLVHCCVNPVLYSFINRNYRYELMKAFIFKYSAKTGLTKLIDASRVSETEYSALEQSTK

Binder | Supplementary Table 4: EC50 of β-arrestin-1 recruitment to ACKR3, U87 cells [1] [nM] | Supplementary Table 4: EC50 of β-arrestin-1 recruitment to DOR, U87 cells [2] [nM] | Supplementary Table 4: EC50 of β-arrestin-1 recruitment to KOR, U87 cells [3] [nM] | Supplementary Table 4: EC50 of β-arrestin-1 recruitment to MOR, U87 cells [4] [nM] | Supplementary Table 5: EC50 of β-arrestin-1 recruitment to ACKR3 [5] [nM]
B1 | 10000 | 378 | 230 | 786 | –
B2 | 153 | 254 | 71.2 | 294 | –
B3 | 115 | 320 | 76.9 | 188 | –
B4 | 201 | 260 | 132 | 265 | –
B5 | 73.5 | 212 | 80.9 | 198 | –
B6 | 37 | 527 | 19.2 | 252 | –
B7 | > 10000 | – | – | – | –
B8 | 110 | 259 | 63.1 | 183 | –
B9 | > 10000 | – | – | – | –
B10 | 330 | 637 | 205 | 308 | –
B11 | 72.3 | 272 | 57.5 | 174 | –
B12 | 12.6 | 193 | 21.9 | 58.7 | –
B13 | 52.9 | 253 | 79.4 | 271 | –
B14 | – | – | – | – | 1.12
B15 | – | – | – | – | 3.53
B16 | – | – | – | – | 4.39
B17 | – | – | – | – | 6.16
B18 | – | – | – | – | 7.34
B19 | – | – | – | – | 10.5
B20 | – | – | – | – | 11

Binder | Supplementary Table 4: EC50 of β-arrestin-1 recruitment to ACKR3, U87 cells [1] [nM] | Supplementary Table 4: EC50 of β-arrestin-1 recruitment to DOR, U87 cells [2] [nM] | Supplementary Table 4: EC50 of β-arrestin-1 recruitment to KOR, U87 cells [3] [nM] | Supplementary Table 4: EC50 of β-arrestin-1 recruitment to MOR, U87 cells [4] [nM] | Supplementary Table 5: EC50 of β-arrestin-1 recruitment to ACKR3 [5] [nM]
B21 | 9.33 | – | – | – | –
B22 | 261 | – | – | – | –
B23 | 611 | 2320 | – | 1090 | –
B24 | 10000 | – | – | – | –
B25 | 5000 | – | – | – | –
B26 | 263 | 1580 | 315 | > 10000 | –
B27 | 668 | > 10000 | > 10000 | > 10000 | –
B28 | 5000 | – | – | – | –
B29 | 70.3 | 1020 | > 10000 | 522 | –
B30 | 10000 | – | – | – | –
B31 | 10000 | – | – | – | –
B32 | 684 | 513 | 31.9 | 880 | –
B33 | 5000 | > 10000 | 656 | > 10000 | –
B34 | 10000 | – | – | – | –
B35 | 5000 | > 10000 | 283 | 5000 | –
B36 | 1540 | 1310 | 194 | 363 | –
B37 | 10000 | – | 508 | – | –
B38 | 5000 | 147 | 2240 | 35.4 | –
B39 | 5000 | 360 | 416 | 63.8 | –
B40 | – | 308 | 1250 | 682 | –
